# Measurements taken from US20180155451A1 (published 2018).
# T1: FcγRIIa H (FcγRIIa type H, His at position 131), extracellular domain with C-terminal His tag (human, UniProt P12318 34-217)
# T1 construct: extracellular domain; Expressed in FreeStyle293 cells; analyte in the Biacore assay; also called FcgRIIa H; 2aH; not shown: His tag at the C terminus
# T1 sequence (looked up): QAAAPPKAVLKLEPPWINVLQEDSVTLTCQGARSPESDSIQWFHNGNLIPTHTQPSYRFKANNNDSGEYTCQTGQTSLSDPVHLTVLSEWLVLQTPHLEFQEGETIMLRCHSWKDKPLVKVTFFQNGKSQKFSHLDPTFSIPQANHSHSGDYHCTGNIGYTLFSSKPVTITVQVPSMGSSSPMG
# T2: FcγRIIb, extracellular domain with C-terminal His tag (human, UniProt P31994 43-217)
# T2 construct: extracellular domain; Expressed in FreeStyle293 cells; analyte in the Biacore assay; also called FcgRIIb; 2b; not shown: His tag at the C terminus
# T2 sequence (looked up): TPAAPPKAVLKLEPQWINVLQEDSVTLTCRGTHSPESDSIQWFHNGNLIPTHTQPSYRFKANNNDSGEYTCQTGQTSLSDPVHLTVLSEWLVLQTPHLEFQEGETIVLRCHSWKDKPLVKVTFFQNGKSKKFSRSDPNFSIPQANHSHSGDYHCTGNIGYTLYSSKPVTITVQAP
# B1: GpH7-A5/GpH7-B3 variant A330_18N/GpL16-k0 (antibody, human IgG1, kappa)
# heavy 1: not shown
# heavy 2: not shown
# light: DIVMTQSPLSLPVTPGEPASISCQASESLVHSNRNTYLHWYLQKPGQSPQLLIYKVSNRFSGVPDRFSGSGSGTDFTLKISRVEAEDVGVYYCSQNTHVPPTFGQGTKVEIERTVAAPSVFIFPPSDEQLKSGTASVVCLLNNFYPREAKVQWKVDNALQSGNSQESVTEQDSKDSTYSLSSTLTLSKADYEKHKVYACEVTHQGLSSPVTKSFNRGEC
# notes: He Ab; IgG1; mutation in one H chain only; also called He Ab
# B2: GpH7-A5/GpH7-B3 variant P329_11K/GpL16-k0 (antibody, human IgG1, kappa)
# heavy 1: not shown
# heavy 2: not shown
# light: B1 light
# notes: as for B1
# B3: GpH7-A5/GpH7-B3 variant I332_03V/GpL16-k0 (antibody, human IgG1, kappa)
# heavy 1: not shown
# heavy 2: not shown
# light: B1 light
# notes: as for B1
# B4: GpH7-A5/GpH7-B3 variant I336_19Q/GpL16-k0 (antibody, human IgG1, kappa)
# heavy 1: not shown
# heavy 2: not shown
# light: B1 light
# notes: as for B1
# B5: GpH7-A5/GpH7-B3 variant E333_18N/GpL16-k0 (antibody, human IgG1, kappa)
# heavy 1: not shown
# heavy 2: not shown
# light: B1 light
# notes: as for B1
# B6: GpH7-A5/GpH7-B3 variant P329_13S/GpL16-k0 (antibody, human IgG1, kappa)
# heavy 1: not shown
# heavy 2: not shown
# light: B1 light
# notes: as for B1
# B7: GpH7-A5/GpH7-B3 variant P329_18N/GpL16-k0 (antibody, human IgG1, kappa)
# heavy 1: not shown
# heavy 2: not shown
# light: B1 light
# notes: as for B1
# B8: GpH7-A5/GpH7-B3 variant P329_06M/GpL16-k0 (antibody, human IgG1, kappa)
# heavy 1: not shown
# heavy 2: not shown
# light: B1 light
# notes: as for B1
# B9: GpH7-A5/GpH7-B3 variant S324_16H/GpL16-k0 (antibody, human IgG1, kappa)
# heavy 1: not shown
# heavy 2: not shown
# light: B1 light
# notes: as for B1
# B10: GpH7-A5/GpH7-B3 variant S324_02A/GpL16-k0 (antibody, human IgG1, kappa)
# heavy 1: not shown
# heavy 2: not shown
# light: B1 light
# notes: as for B1
# B11: GpH7-A5/GpH7-B3 variant S324_12R/GpL16-k0 (antibody, human IgG1, kappa)
# heavy 1: not shown
# heavy 2: not shown
# light: B1 light
# notes: as for B1
# B12: GpH7-A5/GpH7-B3 variant P329_03V/GpL16-k0 (antibody, human IgG1, kappa)
# heavy 1: not shown
# heavy 2: not shown
# light: B1 light
# notes: as for B1
# B13: GpH7-A5/GpH7-B3 variant P329_08L/GpL16-k0 (antibody, human IgG1, kappa)
# heavy 1: not shown
# heavy 2: not shown
# light: B1 light
# notes: as for B1
# B14: GpH7-A5/GpH7-B3 variant S324_10E/GpL16-k0 (antibody, human IgG1, kappa)
# heavy 1: not shown
# heavy 2: not shown
# light: B1 light
# notes: as for B1
# B15: GpH7-A5/GpH7-B3 variant I336_20W/GpL16-k0 (antibody, human IgG1, kappa)
# heavy 1: not shown
# heavy 2: not shown
# light: B1 light
# notes: as for B1
# B16: GpH7-A5/GpH7-B3 variant E333_11K/GpL16-k0 (antibody, human IgG1, kappa)
# heavy 1: not shown
# heavy 2: not shown
# light: B1 light
# notes: as for B1
# B17: GpH7-A5/GpH7-B3 variant P329_02A/GpL16-k0 (antibody, human IgG1, kappa)
# heavy 1: not shown
# heavy 2: not shown
# light: B1 light
# notes: as for B1
# B18: GpH7-A5/GpH7-B3 variant Y300_14T/GpL16-k0 (antibody, human IgG1, kappa)
# heavy 1: not shown
# heavy 2: not shown
# light: B1 light
# notes: as for B1
# B19: GpH7-A5/GpH7-B3 variant E333_13S/GpL16-k0 (antibody, human IgG1, kappa)
# heavy 1: not shown
# heavy 2: not shown
# light: B1 light
# notes: as for B1
# Biological target: T1, FcγRIIa H (FcγRIIa type H, His at …)
# Test: SPR Biacore; He/Con_2aH divided by He/Con_2b (reference: FcgRIIb)
row,He_2aH/2b (IIaH/IIb),Binder
1,1.28,B1
2,2.74,B2
3,1.3,B3
4,1.27,B4
5,1.26,B5
6,1.64,B6
7,1.64,B7
8,1.5,B8
9,1.22,B9
10,1.31,B10
11,1.53,B11
12,1.57,B12
13,1.56,B13
14,1.33,B14
15,1.52,B15
16,1.22,B16
17,1.62,B17
18,1.69,B18
19,1.23,B19

# Biological target: T2, FcγRIIb, extracellular domain with …
# Test: SPR Biacore, captured antibody, FcgR analyte; GpH7-A5/GpH7-B3/GpL16-k0 = 100
row,He/Con_2b,Binder
1,63.7 % of HeCon Ab,B1
2,16.9 % of HeCon Ab,B2
3,80.7 % of HeCon Ab,B3
4,58.2 % of HeCon Ab,B4
5,76.1 % of HeCon Ab,B5
6,41 % of HeCon Ab,B6
7,40.4 % of HeCon Ab,B7
8,29.1 % of HeCon Ab,B8
9,83.5 % of HeCon Ab,B9
10,78.3 % of HeCon Ab,B10
11,63.1 % of HeCon Ab,B11
12,38.5 % of HeCon Ab,B12
13,29.1 % of HeCon Ab,B13
14,77.4 % of HeCon Ab,B14
15,20.3 % of HeCon Ab,B15
16,80.6 % of HeCon Ab,B16
17,40.5 % of HeCon Ab,B17
18,55.6 % of HeCon Ab,B18
19,81.8 % of HeCon Ab,B19

# Biological target: T1, FcγRIIa H (FcγRIIa type H, His at …)
# Test: as above
row,He/Con_2aH,Binder
1,81.6 % of HeCon Ab,B1
2,46.2 % of HeCon Ab,B2
3,105 % of HeCon Ab,B3
4,73.7 % of HeCon Ab,B4
5,96.2 % of HeCon Ab,B5
6,67.3 % of HeCon Ab,B6
7,66.2 % of HeCon Ab,B7
8,43.7 % of HeCon Ab,B8
9,102 % of HeCon Ab,B9
10,102 % of HeCon Ab,B10
11,96.5 % of HeCon Ab,B11
12,60.4 % of HeCon Ab,B12
13,45.4 % of HeCon Ab,B13
14,103 % of HeCon Ab,B14
15,30.9 % of HeCon Ab,B15
16,98.1 % of HeCon Ab,B16
17,65.7 % of HeCon Ab,B17
18,94.1 % of HeCon Ab,B18
19,101 % of HeCon Ab,B19
